Test results published in patent US20230406935A1 (F STAR THERAPEUTICS, published 2023).

B1: Fcab FS17-33-116 with LALA mutation (designed binder)
chain: TCPPCPAPEAAGGPSVFLFPPKPKDTLMISRTPEVTCVVVDVSHEDPEVKFNWYVDGVEVHNAKTKPREEQYNSTYRVVSVLTVLHQDWLNGKEYKCKVSNKALPAPIEKTISKAKGQPREPQVYTLPPSRDESGYWVSLTCLVKGFYPSDIVVEWESNGEPQYWAKTTPPVLDSDGSFFLYSKLTVSNWRWQMDDFSCSVMHEALHNHYTQKSLSLSPGK
B2: Fcab FS17-33-334 with LALA mutation (designed binder)
chain: TCPPCPAPEAAGGPSVFLFPPKPKDTLMISRTPEVTCVVVDVSHEDPEVKFNWYVDGVEVHNAKTKPREEQYNSTYRVVSVLTVLHQDWLNGKEYKCKVSNKALPAPIEKTISKAKGQPREPQVYTLPPSRDESGYWVSLTCLVKGFYPSDIAVEWESNGEPQYWAKTTPPVLDSDGSFFLYSKLTVSNWRWQLDDFSCSVMHEALHNHYTQKSLSLSPGK
B3: Fcab FS17-33-289 (designed binder)
chain: TCPPCPAPELLGGPSVFLFPPKPKDTLMISRTPEVTCVVVDVSHEDPEVKFNWYVDGVEVHNAKTKPREEQYNSTYRVVSVLTVLHQDWLNGKEYKCKVSNKALPAPIEKTISKAKGQPREPQVYTLPPSRDESGYWVSLTCLVKGFYPSDIVVEWESNGEPQYWAKTTPPVLDSDGSFFLYSKLTVSNWRWQLDDFSCSVMHEALHNHYTQKSLSLSPGK
B4: Fcab FS17-33-289 with LALA mutation (designed binder)
chain: TCPPCPAPEAAGGPSVFLFPPKPKDTLMISRTPEVTCVVVDVSHEDPEVKFNWYVDGVEVHNAKTKPREEQYNSTYRVVSVLTVLHQDWLNGKEYKCKVSNKALPAPIEKTISKAKGQPREPQVYTLPPSRDESGYWVSLTCLVKGFYPSDIVVEWESNGEPQYWAKTTPPVLDSDGSFFLYSKLTVSNWRWQLDDFSCSVMHEALHNHYTQKSLSLSPGK
B5: Fcab FS17-33-296 with LALA mutation (designed binder)
chain: TCPPCPAPEAAGGPSVFLFPPKPKDTLMISRTPEVTCVVVDVSHEDPEVKFNWYVDGVEVHNAKTKPREEQYNSTYRVVSVLTVLHQDWLNGKEYKCKVSNKALPAPIEKTISKAKGQPREPQVYTLPPSRDESGYWVSLTCLVKGFYPSDIVVEWESNGEPQYWAKTTPPVLDSDGSFFLYSKLTVSNWRWQVDDFSCSVMHEALHNHYTQKSLSLSPGK
B6: Fcab FS17-33-288 with LALA mutation (designed binder)
chain: TCPPCPAPEAAGGPSVFLFPPKPKDTLMISRTPEVTCVVVDVSHEDPEVKFNWYVDGVEVHNAKTKPREEQYNSTYRVVSVLTVLHQDWLNGKEYKCKVSNKALPAPIEKTISKAKGQPREPQVYTLPPSRDESGYWVSLTCLVKGFYPSDIVVEWESNGEPQYWAKTTPPVLDSDGSFFLYSKLTVSNWRWQIDDFSCSVMHEALHNHYTQKSLSLSPGK
B7: Fcab FS17-33-296 (designed binder)
chain: TCPPCPAPELLGGPSVFLFPPKPKDTLMISRTPEVTCVVVDVSHEDPEVKFNWYVDGVEVHNAKTKPREEQYNSTYRVVSVLTVLHQDWLNGKEYKCKVSNKALPAPIEKTISKAKGQPREPQVYTLPPSRDESGYWVSLTCLVKGFYPSDIVVEWESNGEPQYWAKTTPPVLDSDGSFFLYSKLTVSNWRWQVDDFSCSVMHEALHNHYTQKSLSLSPGK
B8: FS17-33-289AA/HelD1.3 mock mAb^2 (bispecific antibody, human IgG1, kappa, L234A L235A)
heavy: QVQLQESGPGLVRPSQTLSLTCTVSGSTFSGYGVNWVRQPPGRGLEWIGMIWGDGNTDYNSALKSRVTMLVDTSKNQFSLRLSSVTAADTAVYYCARERDYRLDYWGQGSLVTVSSASTKGPSVFPLAPSSKSTSGGTAALGCLVKDYFPEPVTVSWNSGALTSGVHTFPAVLQSSGLYSLSSVVTVPSSSLGTQTYICNVNHKPSNTKVDKKVEPKSCDKTHTCPPCPAPEAAGGPSVFLFPPKPKDTLMISRTPEVTCVVVDVSHEDPEVKFNWYVDGVEVHNAKTKPREEQYNSTYRVVSVLTVLHQDWLNGKEYKCKVSNKALPAPIEKTISKAKGQPREPQVYTLPPSRDESGYWVSLTCLVKGFYPSDIVVEWESNGEPQYWAKTTPPVLDSDGSFFLYSKLTVSNWRWQLDDFSCSVMHEALHNHYTQKSLSLSPGK
light: DIQMTQSPASLSASVGETVTITCRASGNIHNYLAWYQQKQGKSPQLLVYNAKTLADGVPSRFSGSGSGTQYSLKINSLQPEDFGSYYCQHFWSTPRTFGGGTKLEIKRTVAAPSVFIFPPSDEQLKSGTASVVCLLNNFYPREAKVQWKVDNALQSGNSQESVTEQDSKDSTYSLSSTLTLSKADYEKHKVYACEVTHQGLSSPVTKSFNRGEC
notes: also called F17-33-289AA/HelD1.3; F17-33-289AA/HELD1.3
B9: FS17-33-296/HelD1.3 mock mAb^2 (without LALA) (bispecific antibody, human IgG1, kappa)
heavy: QVQLQESGPGLVRPSQTLSLTCTVSGSTFSGYGVNWVRQPPGRGLEWIGMIWGDGNTDYNSALKSRVTMLVDTSKNQFSLRLSSVTAADTAVYYCARERDYRLDYWGQGSLVTVSSASTKGPSVFPLAPSSKSTSGGTAALGCLVKDYFPEPVTVSWNSGALTSGVHTFPAVLQSSGLYSLSSVVTVPSSSLGTQTYICNVNHKPSNTKVDKKVEPKSCDKTHTCPPCPAPELLGGPSVFLFPPKPKDTLMISRTPEVTCVVVDVSHEDPEVKFNWYVDGVEVHNAKTKPREEQYNSTYRVVSVLTVLHQDWLNGKEYKCKVSNKALPAPIEKTISKAKGQPREPQVYTLPPSRDESGYWVSLTCLVKGFYPSDIVVEWESNGEPQYWAKTTPPVLDSDGSFFLYSKLTVSNWRWQVDDFSCSVMHEALHNHYTQKSLSLSPGK
light: DIQMTQSPASLSASVGETVTITCRASGNIHNYLAWYQQKQGKSPQLLVYNAKTLADGVPSRFSGSGSGTQYSLKINSLQPEDFGSYYCQHFWSTPRTFGGGTKLEIKRTVAAPSVFIFPPSDEQLKSGTASVVCLLNNFYPREAKVQWKVDNALQSGNSQESVTEQDSKDSTYSLSSTLTLSKADYEKHKVYACEVTHQGLSSPVTKSFNRGEC
B10: FS17-33-289/HelD1.3 mock mAb^2 (without LALA) (bispecific antibody, human IgG1, kappa)
heavy: QVQLQESGPGLVRPSQTLSLTCTVSGSTFSGYGVNWVRQPPGRGLEWIGMIWGDGNTDYNSALKSRVTMLVDTSKNQFSLRLSSVTAADTAVYYCARERDYRLDYWGQGSLVTVSSASTKGPSVFPLAPSSKSTSGGTAALGCLVKDYFPEPVTVSWNSGALTSGVHTFPAVLQSSGLYSLSSVVTVPSSSLGTQTYICNVNHKPSNTKVDKKVEPKSCDKTHTCPPCPAPELLGGPSVFLFPPKPKDTLMISRTPEVTCVVVDVSHEDPEVKFNWYVDGVEVHNAKTKPREEQYNSTYRVVSVLTVLHQDWLNGKEYKCKVSNKALPAPIEKTISKAKGQPREPQVYTLPPSRDESGYWVSLTCLVKGFYPSDIVVEWESNGEPQYWAKTTPPVLDSDGSFFLYSKLTVSNWRWQLDDFSCSVMHEALHNHYTQKSLSLSPGK
light: DIQMTQSPASLSASVGETVTITCRASGNIHNYLAWYQQKQGKSPQLLVYNAKTLADGVPSRFSGSGSGTQYSLKINSLQPEDFGSYYCQHFWSTPRTFGGGTKLEIKRTVAAPSVFIFPPSDEQLKSGTASVVCLLNNFYPREAKVQWKVDNALQSGNSQESVTEQDSKDSTYSLSSTLTLSKADYEKHKVYACEVTHQGLSSPVTKSFNRGEC
B11: FS17-33-296AA/HelD1.3 mock mAb^2 (bispecific antibody, human IgG1, kappa, L234A L235A)
heavy: QVQLQESGPGLVRPSQTLSLTCTVSGSTFSGYGVNWVRQPPGRGLEWIGMIWGDGNTDYNSALKSRVTMLVDTSKNQFSLRLSSVTAADTAVYYCARERDYRLDYWGQGSLVTVSSASTKGPSVFPLAPSSKSTSGGTAALGCLVKDYFPEPVTVSWNSGALTSGVHTFPAVLQSSGLYSLSSVVTVPSSSLGTQTYICNVNHKPSNTKVDKKVEPKSCDKTHTCPPCPAPEAAGGPSVFLFPPKPKDTLMISRTPEVTCVVVDVSHEDPEVKFNWYVDGVEVHNAKTKPREEQYNSTYRVVSVLTVLHQDWLNGKEYKCKVSNKALPAPIEKTISKAKGQPREPQVYTLPPSRDESGYWVSLTCLVKGFYPSDIVVEWESNGEPQYWAKTTPPVLDSDGSFFLYSKLTVSNWRWQVDDFSCSVMHEALHNHYTQKSLSLSPGK
light: DIQMTQSPASLSASVGETVTITCRASGNIHNYLAWYQQKQGKSPQLLVYNAKTLADGVPSRFSGSGSGTQYSLKINSLQPEDFGSYYCQHFWSTPRTFGGGTKLEIKRTVAAPSVFIFPPSDEQLKSGTASVVCLLNNFYPREAKVQWKVDNALQSGNSQESVTEQDSKDSTYSLSSTLTLSKADYEKHKVYACEVTHQGLSSPVTKSFNRGEC
notes: also called F17-33-296AA/HelD1.3; F17-33-296AA/HELD1.3
B12: FS17-33-334AA/HelD1.3 mock mAb^2 (bispecific antibody, human IgG1, kappa, L234A L235A)
heavy: QVQLQESGPGLVRPSQTLSLTCTVSGSTFSGYGVNWVRQPPGRGLEWIGMIWGDGNTDYNSALKSRVTMLVDTSKNQFSLRLSSVTAADTAVYYCARERDYRLDYWGQGSLVTVSSASTKGPSVFPLAPSSKSTSGGTAALGCLVKDYFPEPVTVSWNSGALTSGVHTFPAVLQSSGLYSLSSVVTVPSSSLGTQTYICNVNHKPSNTKVDKKVEPKSCDKTHTCPPCPAPEAAGGPSVFLFPPKPKDTLMISRTPEVTCVVVDVSHEDPEVKFNWYVDGVEVHNAKTKPREEQYNSTYRVVSVLTVLHQDWLNGKEYKCKVSNKALPAPIEKTISKAKGQPREPQVYTLPPSRDESGYWVSLTCLVKGFYPSDIAVEWESNGEPQYWAKTTPPVLDSDGSFFLYSKLTVSNWRWQLDDFSCSVMHEALHNHYTQKSLSLSPGK
light: DIQMTQSPASLSASVGETVTITCRASGNIHNYLAWYQQKQGKSPQLLVYNAKTLADGVPSRFSGSGSGTQYSLKINSLQPEDFGSYYCQHFWSTPRTFGGGTKLEIKRTVAAPSVFIFPPSDEQLKSGTASVVCLLNNFYPREAKVQWKVDNALQSGNSQESVTEQDSKDSTYSLSSTLTLSKADYEKHKVYACEVTHQGLSSPVTKSFNRGEC
B13: FS17-33-288AA/HelD1.3 mock mAb^2 (bispecific antibody, human IgG1, kappa, L234A L235A)
heavy: QVQLQESGPGLVRPSQTLSLTCTVSGSTFSGYGVNWVRQPPGRGLEWIGMIWGDGNTDYNSALKSRVTMLVDTSKNQFSLRLSSVTAADTAVYYCARERDYRLDYWGQGSLVTVSSASTKGPSVFPLAPSSKSTSGGTAALGCLVKDYFPEPVTVSWNSGALTSGVHTFPAVLQSSGLYSLSSVVTVPSSSLGTQTYICNVNHKPSNTKVDKKVEPKSCDKTHTCPPCPAPEAAGGPSVFLFPPKPKDTLMISRTPEVTCVVVDVSHEDPEVKFNWYVDGVEVHNAKTKPREEQYNSTYRVVSVLTVLHQDWLNGKEYKCKVSNKALPAPIEKTISKAKGQPREPQVYTLPPSRDESGYWVSLTCLVKGFYPSDIVVEWESNGEPQYWAKTTPPVLDSDGSFFLYSKLTVSNWRWQIDDFSCSVMHEALHNHYTQKSLSLSPGK
light: DIQMTQSPASLSASVGETVTITCRASGNIHNYLAWYQQKQGKSPQLLVYNAKTLADGVPSRFSGSGSGTQYSLKINSLQPEDFGSYYCQHFWSTPRTFGGGTKLEIKRTVAAPSVFIFPPSDEQLKSGTASVVCLLNNFYPREAKVQWKVDNALQSGNSQESVTEQDSKDSTYSLSSTLTLSKADYEKHKVYACEVTHQGLSSPVTKSFNRGEC
notes: also called F17-33-288AA/HelD1.3; F17-33-288AA/HELD1.3

Biological target: Human PD-L1 expressed on cells (human, UniProt Q9NZQ7 19-290)
Sequence (Q9NZQ7 19-290 limits assumed): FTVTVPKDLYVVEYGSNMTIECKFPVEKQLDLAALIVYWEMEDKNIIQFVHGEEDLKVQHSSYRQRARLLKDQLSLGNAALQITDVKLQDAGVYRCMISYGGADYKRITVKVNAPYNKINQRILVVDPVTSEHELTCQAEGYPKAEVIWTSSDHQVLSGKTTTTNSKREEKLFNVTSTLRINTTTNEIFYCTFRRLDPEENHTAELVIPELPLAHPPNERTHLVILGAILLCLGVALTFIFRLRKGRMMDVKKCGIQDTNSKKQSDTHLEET
Assay: cell-based or functional assay

B1 and B2 are within 1.5-fold of each other in “SEB assay (IFNγ release) EC50” value: 0.1 nM for the first, 0.144 nM for the second.

B3 and B4 are within 1.5-fold of each other in “SEB assay (IFNγ release) EC50” value: 0.0886 nM for the first, 0.108 nM for the second.

B5 and B6 are within 1.5-fold of each other in “SEB assay (IFNγ release) EC50” value: 0.124 nM for the first, 0.0899 nM for the second.

First: B7
Second: B8
The “SEB assay (IFNγ release) EC50” value of the first is 6.5-fold lower: 0.0869 nM for the first, 0.566 nM for the second.

First: B9
Second: B10
The “SEB assay (IFNγ release) EC50” value of the first is 1.8-fold higher: 1.71 nM for the first, 0.969 nM for the second.

Compared with B11, B12 is 2.3-fold lower in “SEB assay (IFNγ release) EC50” value: 1.77 nM for the first, 0.761 nM for the second.

In the case of B13, the “SEB assay (IFNγ release) EC50” value is reported as 1.02 nM.
